Laboratory results as given in publication PMC9402603.

Assays:
[1] = target: kpChbG E23K/D224K double-mutant (Klebsiella pneumoniae) (UniProt A6T7U7)
[2] = target: ChbG from Klebsiella pneumoniae (chitooligosaccharide deacetylase), wild type (Klebsiella pneumoniae) (UniProt A6T7U7); assay: SEC-MALS; kpChbG 5 mg/mL, Superdex 200 10/300, SEC buffer (20 mM Tris-HCl pH 8.0, 150 mM NaCl), 0.4 mL/min, 25 °C, DAWN-Treos MALS detector
[3] = target: ChbG from Klebsiella pneumoniae (chitooligosaccharide deacetylase), wild type (Klebsiella pneumoniae) (UniProt A6T7U7); assay: SEC; Superdex 200 Increase 10/300 GL (24 mL), 20 mM Tris-HCl pH 8.0, 150 mM NaCl, 0.4 mL/min, 4 °C; wild type elutes at approximately 15 mL, E23K/D224K at approximately 17 mL

| stoichiometry N [2] | stoichiometry N [3] | Substance | deacetylation of N,N’-diacetylchitobiose measured by ESI-MS, dimerization disrupting mutant E23K/D224K against wild type [1] [%] |
| --- | --- | --- | --- |
|  |  | kpChbG E23K/D224K double-mutant (from UniProt A6T7U7 1-252) (enzyme) | > 50 |
| 2 | 2 | ChbG from Klebsiella pneumoniae (chitooligosaccharide deacetylase), wild type (from UniProt A6T7U7 1-252) (enzyme) |  |
